# Numbering of substitutions follows the chain as printed.
# B1: anti-ferritin nanobody clone 1 (VHH)
# VHH: QVQLQESGGGLVQAGGSLRLSCTASGLAFSSYAMGWFRQAPGKEREFVATIGWTGGTTNYADSVKGRFTISRDNARNTVYLQMNSLKVEDTAVYYCAAGLGAPTVVAGSYQHWGQGTQVTVSS
# notes: One of the 17 nanobodies of CDR3 groups 6 and 26; also called Nb-Ft clone 1; Nb-Ft-1; source: crude periplasmic extract of the phage display clone (pMECS)
# B2: anti-ferritin nanobody clone 5 (VHH)
# VHH: B1 VHH with T23A, A33G, T50S, G52S, T54S, F68L, T104R
# notes: One of the 17 nanobodies of CDR3 groups 6 and 26; also called Nb-Ft clone 5; Nb-Ft-5; source: crude periplasmic extract of the phage display clone (pMECS)
# B3: anti-ferritin nanobody clone 3 (VHH)
# VHH: B1 VHH with V2G, L11A, T23A, A33G, T50S, G52S, F68L, T104R
# notes: One of the 17 nanobodies of CDR3 groups 6 and 26; also called Nb-Ft clone 3; Nb-Ft-3; source: crude periplasmic extract of the phage display clone (pMECS)
# B4: anti-ferritin nanobody clone 7 (VHH)
# VHH: B1 VHH with T23A, T50A, G52M, T54S, A75V, T91A, G108D, Y110F
# notes: One of the 17 nanobodies of CDR3 groups 6 and 26; also called Nb-Ft clone 7; Nb-Ft-7; source: crude periplasmic extract of the phage display clone (pMECS)
# B5: anti-ferritin nanobody clone 6 (VHH)
# VHH: B1 VHH with T23A, A33G, T50A, T69I, T104M, A107V
# notes: One of the 17 nanobodies of CDR3 groups 6 and 26; also called Nb-Ft clone 6; Nb-Ft-6; source: crude periplasmic extract of the phage display clone (pMECS)
# B6: anti-ferritin nanobody clone 4 (VHH)
# VHH: QVQLQESGGGLVQPGGSLRLSCAASGLSFANSWMYWVRQAPGKGLEWVAQISPSSLLINYPDSVSGRFTVSRDNAKNTLFLQMDSLKPEDTAVYYCSTEMDGTSRGQGTQVTVSS
# notes: One of the 17 nanobodies of CDR3 groups 6 and 26; also called Nb-Ft clone 4; Nb-Ft-4; source: crude periplasmic extract of the phage display clone (pMECS)
# B7: anti-ferritin nanobody clone 17 (VHH)
# VHH: QVQLQESGGGAVQAGGSLRLSCAASGLAFSSYGMGWFRQAPGKEREFVAAISWGDGTTNYADSVKGRLTISRDNARNTVYLQMNSLKVGDTAVYYCAAGLGAPRAVAGSFQHWGQGTQVTVSS
# notes: The text calls the preparation partially purified; also called Nb-Ft clone 17; Nb-Ft-17; source: crude periplasmic extract of the phage display clone (pMECS); E. coli WK6, purified (periplasmic extract, cobalt IMAC)
# B8: anti-ferritin nanobody clone 12 (VHH)
# VHH: B1 VHH with T23A, A33G, K43E, T50A, G52S, T54S, S63F
# notes: One of the 17 nanobodies of CDR3 groups 6 and 26; also called Nb-Ft clone 12; Nb-Ft-12; source: crude periplasmic extract of the phage display clone (pMECS)
# B9: anti-ferritin nanobody clone 10 (VHH)
# VHH: B1 VHH with T23A, A33G, A49V, T50A, G52P, T54S, G108D
# notes: The text calls the preparation partially purified; also called Nb-Ft clone 10; Nb-Ft-10; source: crude periplasmic extract of the phage display clone (pMECS); E. coli WK6, purified (periplasmic extract, cobalt IMAC)
# B10: anti-ferritin nanobody clone 14 (VHH)
# VHH: B1 VHH with A14P, T23A, A33G, A49V, T50A, G52P, T54S, G108D
# notes: The text calls the preparation partially purified; also called Nb-Ft clone 14; Nb-Ft-14; source: crude periplasmic extract of the phage display clone (pMECS); E. coli WK6, purified (periplasmic extract, cobalt IMAC)
# B11: anti-ferritin nanobody clone 9 (VHH)
# VHH: B1 VHH with T23A, A33G, T50A, G52R, T54S, A75V, V79A, G108D
# notes: The text calls the preparation partially purified; also called Nb-Ft clone 9; Nb-Ft-9; source: crude periplasmic extract of the phage display clone (pMECS); E. coli WK6, purified (periplasmic extract, cobalt IMAC)
# B12: anti-ferritin nanobody clone 8 (VHH)
# VHH: QVQLQESGGGLVQPGGSLRLSCAASGFSFGDTWMYWVRQAPGKDIEWVAQISPSSVLINYPDSVSGRFTVGRDNAKNTLWLQMDSLKSEDTAVYYCATKMDGASRGQGTQVTVSS
# notes: One of the 17 nanobodies of CDR3 groups 6 and 26; also called Nb-Ft clone 8; Nb-Ft-8; source: crude periplasmic extract of the phage display clone (pMECS)
# B13: anti-ferritin nanobody clone 11 (VHH)
# VHH: B6 VHH with A23V, S25T, N31K, L56V, N59Q, P88S
# notes: One of the 17 nanobodies of CDR3 groups 6 and 26; also called Nb-Ft clone 11; Nb-Ft-11; source: crude periplasmic extract of the phage display clone (pMECS)
# B14: anti-ferritin nanobody clone 16 (VHH)
# VHH: B6 VHH with L56I, N59Q
# notes: One of the 17 nanobodies of CDR3 groups 6 and 26; also called Nb-Ft clone 16; Nb-Ft-16; source: crude periplasmic extract of the phage display clone (pMECS)
# B15: anti-ferritin nanobody clone 15 (VHH)
# VHH: B6 VHH with N31K, L56V, N59Q, T91A, V93Q, S97A, E99D, D101S, S104Y
# notes: One of the 17 nanobodies of CDR3 groups 6 and 26; also called Nb-Ft clone 15; Nb-Ft-15; source: crude periplasmic extract of the phage display clone (pMECS)
# B16: anti-ferritin nanobody clone 13 (VHH)
# VHH: B6 VHH with A23V, D62N, P88S, E99G
# notes: One of the 17 nanobodies of CDR3 groups 6 and 26; also called Nb-Ft clone 13; Nb-Ft-13; source: crude periplasmic extract of the phage display clone (pMECS)
# B17: anti-ferritin nanobody clone 14 fused to HA-tagged mCherry (VHH)
# VHH: B1 VHH with A14P, T23A, A33G, A49V, T50A, G52P, T54S, G108D
# notes: the VHH as in m16; In the functional row this id stands for the same VHH fused to the N-terminus of TRPV1; also called Nb-Ft-14; Nb-Ft-HA-mCherry (clone 14)
# B18: anti-ferritin nanobody clone 10 fused to HA-tagged mCherry (VHH)
# VHH: B1 VHH with T23A, A33G, A49V, T50A, G52P, T54S, G108D
# notes: the VHH as in m12; also called Nb-Ft-10; Nb-Ft-HA-mCherry (clone 10)
# B19: anti-ferritin nanobody clone 9 fused to HA-tagged mCherry (VHH)
# VHH: B1 VHH with T23A, A33G, T50A, G52R, T54S, A75V, V79A, G108D
# notes: the VHH as in m11; In the functional row this id stands for the same VHH fused to the N-terminus of TRPV1; also called Nb-Ft-9; Nb-Ft-HA-mCherry (clone 9)
# B20: anti-ferritin nanobody clone 17 fused to HA-tagged mCherry (VHH)
# VHH: B7 VHH
# notes: the VHH as in m19; also called Nb-Ft-17; Nb-Ft-HA-mCherry (clone 17)
# B21: anti-ferritin nanobody clone 2 fused to HA-tagged mCherry (VHH)
# VHH: QVQLQESGGGLVQPGGSLRLSCAASGLAFSNYGMGWFRQAPGKEREFVSAVSWISDTTNYADSVKGRFTISRDNARNTVYLQMNSLKVEDTAVYYCAAGLGAPRVVAGSYQHWGQGTQVTVSS
# notes: the VHH as in m4; In the functional rows this id stands for the same VHH fused to the N-terminus of TRPV1 (Nb-Ft-2-TRPV1^Ca2+); also called Nb-Ft-2; Nb-Ft-HA-mCherry (clone 2)
# B22: anti-ferritin nanobody clone 2 (VHH)
# VHH: B21 VHH
# notes: The text calls the preparation partially purified; also called Nb-Ft clone 2; Nb-Ft-2; source: crude periplasmic extract of the phage display clone (pMECS); E. coli WK6, purified (periplasmic extract, cobalt IMAC)
# Target: T1, human spleen ferritin (Homo sapiens, UniProt P02794;P02792)
# T1 construct: ferritin heavy chain, human, as part of ferritin from spleen; ferritin light chain, human, as part of ferritin from spleen; Tissue ferritin is a shell of heavy and light chains; also called human ferritin; source: bought: Lee Biosolutions (human spleen ferritin)
# Test: ELISA; first-round screen: crude periplasmic extracts of the clones on coated human spleen ferritin or mouse liver ferritin; absorbance ratio greater than 2.5 selected
# Details: one partner purified
# T1 sequence (P02794 whole entry, chain 1 of 2): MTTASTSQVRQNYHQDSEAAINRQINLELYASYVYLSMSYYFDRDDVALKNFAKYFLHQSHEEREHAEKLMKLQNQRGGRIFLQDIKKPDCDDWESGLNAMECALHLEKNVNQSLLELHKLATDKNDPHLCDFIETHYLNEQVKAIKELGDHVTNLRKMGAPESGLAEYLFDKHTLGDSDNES
# T1 sequence (P02792 whole entry, chain 2 of 2): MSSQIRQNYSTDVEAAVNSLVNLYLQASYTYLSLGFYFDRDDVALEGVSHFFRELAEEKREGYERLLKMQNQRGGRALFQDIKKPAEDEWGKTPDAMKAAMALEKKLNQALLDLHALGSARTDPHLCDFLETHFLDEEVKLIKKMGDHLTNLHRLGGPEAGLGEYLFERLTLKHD
row,Binder,binding result
1,B1,binds
2,B2,binds
3,B3,binds
4,B4,binds
5,B5,binds
6,B6,binds

# Target: T2, mouse liver ferritin (Mus musculus, UniProt P09528;P29391)
# T2 construct: ferritin heavy chain, mouse, as part of ferritin from liver; ferritin light chain, mouse, as part of ferritin from liver; Tissue ferritin is a shell of heavy and light chains; also called mouse ferritin; mouse ferritin purified from mouse liver; source: bought: Gentaur (purified from mouse liver)
# Test: as above
# Details: one partner purified
# T2 sequence (P09528 whole entry, chain 1 of 2): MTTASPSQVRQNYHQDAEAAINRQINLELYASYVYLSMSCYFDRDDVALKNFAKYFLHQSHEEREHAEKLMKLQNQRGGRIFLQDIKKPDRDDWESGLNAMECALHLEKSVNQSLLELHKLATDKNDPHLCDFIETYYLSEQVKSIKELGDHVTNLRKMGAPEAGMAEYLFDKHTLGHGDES
# T2 sequence (P29391 whole entry, chain 2 of 2): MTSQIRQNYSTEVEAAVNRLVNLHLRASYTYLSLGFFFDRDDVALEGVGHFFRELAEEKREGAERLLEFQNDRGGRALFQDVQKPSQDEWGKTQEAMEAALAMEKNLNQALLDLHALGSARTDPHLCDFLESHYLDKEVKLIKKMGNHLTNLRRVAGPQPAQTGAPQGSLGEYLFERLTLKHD
row,Binder,binding result
1,B7,binds
2,B8,binds
3,B9,binds
4,B10,binds
5,B11,binds
6,B12,binds
7,B13,binds
8,B14,binds
9,B15,binds
10,B16,binds

# Target: T3, GFP-tagged mouse ferritin (Mus musculus (ferritin moiety), UniProt P09528, chimera)
# T3 construct: green fluorescent protein, the N-terminal GFP moiety of GFP-mFerritin; the rest of the chimeric ferritin and its linkers; ferritin heavy chain, mouse; found by mass spectrometry as the mouse ferritin of the construct; Runs at about 71 kDa; also called GFP-mFerritin; GFP-ferritin
# Test: co-IP; HEK-293T co-transfected with nanobody-HA-mCherry and GFP-mFerritin; lysis buffer 50 mM Tris pH 7.5, 300 mM NaCl, 1% NP-40, 0.1% SDS; anti-HA agarose overnight at 4 °C; eluate on SDS-PAGE, Coomassie
# Details: partners not purified
row,Binder,binding result
1,B17,binds
2,B18,binds
3,B19,binds

# Target: T4, endogenous human ferritin of HEK-293T cells (Homo sapiens (HEK-293T, endogenous), UniProt P02794;P02792)
# T4 construct: ferritin heavy chain, human; the chain whose unique peptides were quantified; ferritin light chain, human; Only the heavy chain was measured; also called human ferritin heavy chain; FTH1_human
# Test: affinity purification with mass spectrometry; the anti-HA immunoprecipitates of nanobody-HA-mCherry from HEK-293T with GFP-mFerritin; LC-MS/MS, abundance from peptides unique to mouse or human ferritin heavy chain; enrichment against cells with GFP-mFerritin alone
# Details: partners not purified
# T4 sequence (P02794 whole entry, chain 1 of 2): as the sequence (P02794 whole entry, chain 1 of 2) above
# T4 sequence (P02792 whole entry, chain 2 of 2): as the sequence (P02792 whole entry, chain 2 of 2) above
row,Binder,fold enrichment in the immunoprecipitate over cells with GFP-mFerritin alone [fold]
1,B20,20.9
2,B17,5.1
3,B18,7
4,B19,4.6
5,B21,58.1

# Target: T3, GFP-tagged mouse ferritin
# Test: as above
# Details: partners not purified
row,Binder,fold enrichment in the immunoprecipitate over cells with GFP-mFerritin alone [fold]
1,B20,6
2,B21,14.5

# Target: T1, human spleen ferritin
# Test: ITC; 10 uM human spleen ferritin in the cell, 75 uM NbFt2 in the syringe, 25 °C; MicroCal Auto-iTC200
# Details: both partners purified
row,Binder,Kd [nM]
1,B22,540 ± 200

# Source: paper doi:10.1101/2023.06.20.545120, “Magnetogenetic cell activation using endogenous ferritin” (bioRxiv, 2024)
